Substitutions are numbered along the chain they refer to.
T1: Interleukin-12 (IL-12) (human, UniProt P29459 23-219; P29460 23-328)
T1 sequence 1: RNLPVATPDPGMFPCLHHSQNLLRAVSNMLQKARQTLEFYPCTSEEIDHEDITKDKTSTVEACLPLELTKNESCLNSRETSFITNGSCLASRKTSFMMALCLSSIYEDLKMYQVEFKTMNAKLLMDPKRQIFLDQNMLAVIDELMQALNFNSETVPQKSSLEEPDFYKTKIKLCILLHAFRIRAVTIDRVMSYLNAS
T1 sequence 2: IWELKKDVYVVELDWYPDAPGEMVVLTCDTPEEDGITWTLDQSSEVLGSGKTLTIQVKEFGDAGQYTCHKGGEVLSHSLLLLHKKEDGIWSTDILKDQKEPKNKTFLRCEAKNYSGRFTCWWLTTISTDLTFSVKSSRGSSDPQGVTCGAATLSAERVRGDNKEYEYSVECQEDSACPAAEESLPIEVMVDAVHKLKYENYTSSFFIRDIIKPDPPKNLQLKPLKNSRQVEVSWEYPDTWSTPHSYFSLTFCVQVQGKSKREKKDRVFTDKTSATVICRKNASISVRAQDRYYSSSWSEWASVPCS

B1: BI-057 (Fc fusion)
chain 1: EPKSSDKTHTCPPCPAPEAAGGPSVFLFPPKPKDTLMISRTPEVTCVVVDVSHEDPEVKFNWYVDGVEVHNAKTKPREEQYNSTYRVVSVLTVLHQDWLNGKEYKCKVSNKALPAPIEKTISKAKGQPREPQVYTLPPSREEMTKNQVSLWCLVKGFYPSDIAVEWESNGQPENNYKTTPPVLDSDGSFFLYSKLTVDKSRWQQGNVFSCSVMHEALHNHYTQKSLSLSPGGGGGSGGGGGPLGVRGGGGGSIWELKKDVYVVELDWYPDAPGEMVVLTCDTPEEDGITWTLDQSSEVLGSGKTLTIQVKEFGDAGQYTCHKGGEVLSHSLLLLHKKEDGIWSTDILKDQKEPKNKTFLRCEAKNYSGRFTCWWLTTISTDLTFSVKSSRGSSDPQGVTCGAATLSAERVRGDNKEYEYSVECQEDSACPAAEESLPIEVMVDAVHKLKYENYTSSFFIRDIIKPDPPKNLQLKPLKNSRQVEVSWEYPDTWSTPHSYFSLTFCVQVQGKSKREKKDRVFTDKTSATVICRKNASISVRAQDRYYSSSWSEWASVPCSGGGGSGGGGSGGGGSRVIPVSGPARCLSQSRNLLKTTDDMVKTAREKLKHYSCTAEDIDHEDITRDQTSTLKTCLPLELHKNESCLATRETSSTTRGSCLPPQKTSLMMTLCLGSIYEDLKMYQTEFQAINAALQNHNHQQIILDKGMLVAIDELMQSLNHNGETLRQKPPVGEADPYRVKMKLCILLHAFSTRVVTINRVMGYLSSAGSGGLRELHLDNN
chain 2: EPKSSDKTHTCPPCPAPEAAGGPSVFLFPPKPKDTLMISRTPEVTCVVVDVSHEDPEVKFNWYVDGVEVHNAKTKPREEQYNSTYRVVSVLTVLHQDWLNGKEYKCKVSNKALPAPIEKTISKAKGQPREPQVYTLPPSREEMTKNQVSLSCAVKGFYPSDIAVEWESNGQPENNYKTTPPVLDSDGSFFLVSKLTVDKSRWQQGNVFSCSVMHEALHNRFTQKSLSLSPGGGGGSGGGGSGGGGSGGGGSGGGGSEVQLVESGGGLVQPGGSLRLSCAASGRTFETIAMGWFRQAPGKGLEFVAVIRGSGVATYYAESVKGRFTISKDSSKNTVYLQMNSLRAEDTAVYYCAATTNRFKNTDYTTYDYWGQGTQVTVSSA
notes: Knob-into-hole heterodimer; human p40, mouse p35; also called chimeric IL-12 Fc fusion protein containing collagen I TME linker
B2: BI-039 (VHH)
VHH: QVQLVESGGGLVQAGGSLRLSCAASGRTFETIAMGWFRQVPGKEREFVAVIRGSGVATYYPDSVKGRFTISKDSAKNTVYLQMNNLKPEDTAVYYCAATTNRFKNTDYTTYDYWGQGTQVTVSS
B3: BI-063 (VHH)
VHH: B2 VHH with Q1E, A14P, V40A, A75S, N85S, K87R, P88A
notes: Variant of BI-039; also called 61-Gft-106; BI-063 VHH
B4: BI-119 (VHH)
VHH: B2 VHH with Q1E, A14P, V40A, D62E, A75S, N85S, K87R, P88A, T106R
B5: BI-117 (VHH)
VHH: B2 VHH with Q1E, A14P, V40A, D62E, A75S, N85S, K87R, P88A
notes: also called 61-Gft-106_D62E
B6: BI-048 (VHH)
VHH: EVQLVESGGGLVQPGGSLRLSCAASGRTFETIAMGWFRQAPGKGLEFVAVIRGSGVATYYAESVKGRFTISKDSSKNTVYLQMNSLRAEDTAVYYCAATTNRFKNTDYTTYDYWGQGTQVTVSS
notes: Humanised variant of BI-039, the selected masking domain; also called Mix 13
B7: BI-120 (VHH)
VHH: B6 VHH with G44E, L45R, A61P, D107E
B8: BI-123 (VHH)
VHH: B6 VHH with G44E, L45R, Y59S, A61P
B9: BI-049 (VHH)
VHH: B6 VHH with T106R, D107E
notes: Variant of BI-039, mask of BI-054; also called Mix 15

Assays:
[1] = target: collagen present in fibrotic rat livers (rat); assay: 24 h incubation with fibrotic rat liver slices, recovered protein by MSD U-PLEX
Protocol: (§1) FIGS. 26A-26B: Precision cut liver slices were prepared from fibrotic rat livers. IL-12 Fc fusion proteins (BI-057 or BI-065; in amounts indicated in figure legends) were added to the slices and incubated for 24 hours (FIG. 26A) or 2 hours followed by 22 h recovery period (FIG. 26B). After 2 h incubation, fusion proteins were thoroughly washed and incubated for another 22 h in medium before harvest. After 24 h, slices were collected, lysed and homogenized. The amount of IL-12 Fc fusion proteins recovered from the slices was determined with the MSD U-PLEX Biomarker Assay using IL-12 Fc fusion proteins as standards.
(§2) Briefly, tissue cores are cut from the fibrotic rat liver using a 5 mm cylindrical motorized tissue coring press (Alabama R&D, MD5000), and 300 μm thick tissue slices are cut using a tissue slicer (Alabama R&D, MD6000). All tissue slices are cultured with a floating culture system (60 rpm) in 12 well plates (Nunc) in a humidified incubator, 95% O₂/5% CO₂, 37° C. in 1.3 mL supplemented William's Medium E (Life Technologies).

[2] = target: T2, rat collagen I (rat, UniProt P02454 152-1207; P02466 86-1125); assay: ELISA on plates coated with rat collagen I (Corning), detection with anti-human Fc
T2 construct: Bought; also called Rat collagen (Corning)
Protocol: (§3) Collagen binding properties were further evaluated in ELISA assay. Chimeric IL-12 Fc fusion protein BI-065 or chimeric IL-12 Fc fusion protein containing collagen I TME linker BI-057 were added to collagen I-coated plates. To this end, plates were coated either with rat collagen I (FIG. 25A) or with human skin collagen I (FIG. 25B).
(§4) Briefly, high binding microplates (greiner) are coated over night at 4° C. with rat collagen (Corning) or human collagen (Millipore/R&D) diluted in coating buffer (Invitrogen) with a concentration of 0.005 mg/mL. IL-12 Fc fusion proteins are diluted in PBS+1% BSA and added to collagen precoated plates for 2 hours. The plates are blocked with 1% BSA before addition of proteins to minimize unspecific binding. Next, plates are washed 3× followed by incubation with biotinylated anti-human Fc antibody (Invitrogen). After additional washing step, Streptavidin-HRP are added to the plates. Substrate are added to plates after a washing step and plates are read in ELISA reader (Tecan).

[3] = target: T3, human collagen type 1 (human, UniProt P02452 162-1218; P08123 80-1119, limits assumed); assay: ELISA on plates coated with human collagen I (Millipore/R&D), detection with anti-human Fc
T3 construct: Bought or cell-made collagen; also called human collagen I; human collagen (Millipore/R&D)
Protocol: as §3, §4

[4] = target: collagen present in fibrotic rat livers (rat); assay: 2 h incubation, wash and 22 h culture of fibrotic rat liver slices, recovered protein by MSD U-PLEX
Protocol: as §1, §2

[5] = target: T1, Interleukin-12 (IL-12); assay: cell-based or functional assay
[6] = target: T1, Interleukin-12 (IL-12); assay: affinity for IL-12; method not stated

T3 sequence (P02452 162-1218 limits assumed, chain 1 of 2): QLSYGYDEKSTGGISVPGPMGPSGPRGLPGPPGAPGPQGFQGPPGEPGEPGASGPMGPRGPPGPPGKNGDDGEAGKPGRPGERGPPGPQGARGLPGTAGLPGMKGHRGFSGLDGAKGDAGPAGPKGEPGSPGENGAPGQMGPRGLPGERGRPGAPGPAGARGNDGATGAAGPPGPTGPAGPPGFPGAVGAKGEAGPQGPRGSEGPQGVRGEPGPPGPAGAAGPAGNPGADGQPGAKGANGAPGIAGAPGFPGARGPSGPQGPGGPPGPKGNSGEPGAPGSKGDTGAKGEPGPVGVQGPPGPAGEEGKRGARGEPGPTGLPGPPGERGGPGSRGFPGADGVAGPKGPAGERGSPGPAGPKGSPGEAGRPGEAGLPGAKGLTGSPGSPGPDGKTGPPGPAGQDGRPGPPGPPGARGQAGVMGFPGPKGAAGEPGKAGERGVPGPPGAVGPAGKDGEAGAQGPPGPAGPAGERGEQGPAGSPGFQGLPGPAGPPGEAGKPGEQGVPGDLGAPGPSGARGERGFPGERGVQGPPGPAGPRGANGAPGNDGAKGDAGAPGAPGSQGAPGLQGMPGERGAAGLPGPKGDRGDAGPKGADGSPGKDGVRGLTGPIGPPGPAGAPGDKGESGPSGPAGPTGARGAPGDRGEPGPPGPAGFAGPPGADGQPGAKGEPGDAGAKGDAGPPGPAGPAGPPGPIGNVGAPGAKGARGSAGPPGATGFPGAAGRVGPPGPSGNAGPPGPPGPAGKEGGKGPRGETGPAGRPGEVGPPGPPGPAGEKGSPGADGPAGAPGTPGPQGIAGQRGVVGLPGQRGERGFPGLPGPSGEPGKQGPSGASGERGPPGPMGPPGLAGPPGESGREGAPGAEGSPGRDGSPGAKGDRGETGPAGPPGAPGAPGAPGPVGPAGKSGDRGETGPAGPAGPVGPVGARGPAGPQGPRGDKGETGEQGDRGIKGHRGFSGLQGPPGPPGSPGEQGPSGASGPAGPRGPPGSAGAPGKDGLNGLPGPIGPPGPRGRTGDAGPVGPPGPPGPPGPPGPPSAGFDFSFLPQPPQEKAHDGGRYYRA
T3 sequence (P08123 80-1119 limits assumed, chain 2 of 2): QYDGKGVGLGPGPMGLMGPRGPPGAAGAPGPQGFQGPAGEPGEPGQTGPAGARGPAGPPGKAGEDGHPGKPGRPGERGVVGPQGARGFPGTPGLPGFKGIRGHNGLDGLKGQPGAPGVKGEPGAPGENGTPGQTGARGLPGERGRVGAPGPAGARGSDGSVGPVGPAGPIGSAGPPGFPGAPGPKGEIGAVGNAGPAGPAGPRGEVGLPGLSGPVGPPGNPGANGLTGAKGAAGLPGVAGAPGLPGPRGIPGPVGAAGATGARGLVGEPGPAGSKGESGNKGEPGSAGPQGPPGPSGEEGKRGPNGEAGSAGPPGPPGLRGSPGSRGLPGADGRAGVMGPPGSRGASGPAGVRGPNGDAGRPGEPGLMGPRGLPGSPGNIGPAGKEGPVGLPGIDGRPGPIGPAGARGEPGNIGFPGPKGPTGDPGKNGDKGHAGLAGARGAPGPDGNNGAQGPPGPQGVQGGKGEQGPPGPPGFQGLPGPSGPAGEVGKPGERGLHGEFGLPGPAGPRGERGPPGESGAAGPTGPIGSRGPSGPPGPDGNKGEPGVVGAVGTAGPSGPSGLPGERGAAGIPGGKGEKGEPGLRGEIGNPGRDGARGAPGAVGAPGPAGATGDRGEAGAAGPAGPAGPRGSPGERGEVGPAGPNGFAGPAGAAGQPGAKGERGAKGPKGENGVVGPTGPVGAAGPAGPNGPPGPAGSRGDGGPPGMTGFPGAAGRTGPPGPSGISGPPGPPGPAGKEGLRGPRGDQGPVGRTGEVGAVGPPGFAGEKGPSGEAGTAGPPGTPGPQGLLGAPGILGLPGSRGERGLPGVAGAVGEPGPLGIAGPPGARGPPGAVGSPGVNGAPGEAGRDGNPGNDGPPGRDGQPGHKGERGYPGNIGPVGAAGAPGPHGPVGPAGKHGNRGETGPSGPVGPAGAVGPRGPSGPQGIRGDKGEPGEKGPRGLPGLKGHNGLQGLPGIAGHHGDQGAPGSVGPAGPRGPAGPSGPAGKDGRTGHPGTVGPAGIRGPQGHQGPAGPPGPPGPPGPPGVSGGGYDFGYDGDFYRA
T2 sequence (P02454 152-1207, chain 1 of 2): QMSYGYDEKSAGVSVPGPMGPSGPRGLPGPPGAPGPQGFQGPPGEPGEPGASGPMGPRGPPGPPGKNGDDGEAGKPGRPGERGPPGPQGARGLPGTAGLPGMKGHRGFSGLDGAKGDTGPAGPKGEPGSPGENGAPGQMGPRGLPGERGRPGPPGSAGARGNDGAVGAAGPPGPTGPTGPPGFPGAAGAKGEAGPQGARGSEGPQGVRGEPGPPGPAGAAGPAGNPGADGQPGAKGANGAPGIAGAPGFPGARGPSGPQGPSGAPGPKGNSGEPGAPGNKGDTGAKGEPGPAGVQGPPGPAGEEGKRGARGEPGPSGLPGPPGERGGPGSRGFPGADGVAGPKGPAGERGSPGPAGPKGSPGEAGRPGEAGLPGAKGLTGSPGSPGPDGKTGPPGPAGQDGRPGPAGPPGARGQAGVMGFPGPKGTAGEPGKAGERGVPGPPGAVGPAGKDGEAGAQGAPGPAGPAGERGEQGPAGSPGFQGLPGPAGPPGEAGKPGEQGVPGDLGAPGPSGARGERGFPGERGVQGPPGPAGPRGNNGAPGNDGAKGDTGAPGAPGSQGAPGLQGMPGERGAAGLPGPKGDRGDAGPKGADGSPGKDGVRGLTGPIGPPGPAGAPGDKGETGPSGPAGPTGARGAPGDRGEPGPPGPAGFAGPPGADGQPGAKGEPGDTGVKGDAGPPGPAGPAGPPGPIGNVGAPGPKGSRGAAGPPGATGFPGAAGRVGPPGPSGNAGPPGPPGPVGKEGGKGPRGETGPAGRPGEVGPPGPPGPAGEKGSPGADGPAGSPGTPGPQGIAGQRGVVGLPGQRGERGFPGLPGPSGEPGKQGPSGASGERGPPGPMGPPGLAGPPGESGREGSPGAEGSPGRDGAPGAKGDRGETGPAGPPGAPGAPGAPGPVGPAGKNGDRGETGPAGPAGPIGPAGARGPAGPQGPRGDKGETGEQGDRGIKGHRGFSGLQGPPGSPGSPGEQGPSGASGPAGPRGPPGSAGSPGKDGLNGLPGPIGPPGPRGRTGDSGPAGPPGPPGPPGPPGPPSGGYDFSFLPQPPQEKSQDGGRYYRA
T2 sequence (P02466 86-1125, chain 2 of 2): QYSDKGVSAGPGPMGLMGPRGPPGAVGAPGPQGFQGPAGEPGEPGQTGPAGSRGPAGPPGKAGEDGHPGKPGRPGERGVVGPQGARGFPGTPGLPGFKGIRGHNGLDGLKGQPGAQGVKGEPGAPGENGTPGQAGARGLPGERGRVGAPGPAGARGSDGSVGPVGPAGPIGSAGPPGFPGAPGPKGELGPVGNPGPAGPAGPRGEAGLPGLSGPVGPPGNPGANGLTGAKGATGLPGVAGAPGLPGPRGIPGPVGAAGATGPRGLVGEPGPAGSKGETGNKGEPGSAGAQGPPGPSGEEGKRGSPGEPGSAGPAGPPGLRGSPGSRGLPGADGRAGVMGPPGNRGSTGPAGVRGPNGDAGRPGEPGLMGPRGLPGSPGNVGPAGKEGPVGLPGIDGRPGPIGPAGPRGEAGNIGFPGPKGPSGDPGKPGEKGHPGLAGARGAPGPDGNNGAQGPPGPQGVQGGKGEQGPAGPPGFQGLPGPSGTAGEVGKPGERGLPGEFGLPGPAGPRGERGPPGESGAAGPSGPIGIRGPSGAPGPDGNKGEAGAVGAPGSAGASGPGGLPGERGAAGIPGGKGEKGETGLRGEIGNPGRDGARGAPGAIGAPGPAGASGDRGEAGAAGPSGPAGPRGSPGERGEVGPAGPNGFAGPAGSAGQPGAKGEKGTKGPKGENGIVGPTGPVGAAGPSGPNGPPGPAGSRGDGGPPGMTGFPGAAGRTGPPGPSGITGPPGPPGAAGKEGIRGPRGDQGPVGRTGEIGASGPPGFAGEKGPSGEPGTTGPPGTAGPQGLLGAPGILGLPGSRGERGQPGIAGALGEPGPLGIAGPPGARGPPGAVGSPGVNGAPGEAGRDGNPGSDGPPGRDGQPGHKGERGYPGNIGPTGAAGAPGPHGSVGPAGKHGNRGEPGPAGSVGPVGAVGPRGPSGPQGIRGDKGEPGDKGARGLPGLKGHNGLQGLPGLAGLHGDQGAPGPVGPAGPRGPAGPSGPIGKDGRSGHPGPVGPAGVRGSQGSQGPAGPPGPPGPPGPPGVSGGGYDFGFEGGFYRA

Binder | fold decrease in fold recovery from liver slices against BI-065 [1] [fold] | EC50 [2] [nM] | EC50 [3] [nM] | fold recovery from liver slices against BI-065 [4] [fold] | IC50 [5] [nM] | Kd [6] [nM]
B1 | > 10 | 26 | 75 | 10 |  | 
B2 |  |  |  |  | 0.61 | 3.5
B3 |  |  |  |  | 0.89 | 3.4
B4 |  |  |  |  | 2.4 | 8.5
B5 |  |  |  |  | 0.36 | 3
B6 |  |  |  |  | 0.44 | 3.7
B7 |  |  |  |  | 2.5 | 4.1
B8 |  |  |  |  | 10 | 30
B9 |  |  |  |  | 5.7 | 12

Reference: patent US20240262879A1 (Boehringer Ingelheim, published 2024)
